In publication PMC7886630:

Assays:
[1] = target: soluble recombinant human ACE2 (Gln18-Ser740), His-tagged (human) (UniProt Q9BYF1); experiment: AFM single-molecule force spectroscopy
[2] = target: deglycosylated ACE2 treated with PNGase F (human) (UniProt Q9BYF1); experiment: AFM single-molecule force spectroscopy

**Q.** With “SARS-CoV-1 spike receptor-binding domain (residues 318-510) with C-terminal Fc tag (Fc fusion; modification not given)” as the substance, how does the koff [1] read?
**A.** 0.57 s⁻¹

**Q.** And the koff [2]?
**A.** 3.4 s⁻¹
